The values that follow come from paper doi:10.1101/2023.02.24.529952.

This test addresses HCoV-OC43 Nucleocapsid (N) protein (2X-StrepTag tagged) (HCoV-OC43) (UniProt P33469). Description: BLI. (Biolayer interferometry detects binding as a change in optical thickness at a sensor tip.)

Chain of HCoV-OC43 Nucleocapsid (N) protein (2X-StrepTag tagged) (HCoV-OC43) (P33469 whole entry): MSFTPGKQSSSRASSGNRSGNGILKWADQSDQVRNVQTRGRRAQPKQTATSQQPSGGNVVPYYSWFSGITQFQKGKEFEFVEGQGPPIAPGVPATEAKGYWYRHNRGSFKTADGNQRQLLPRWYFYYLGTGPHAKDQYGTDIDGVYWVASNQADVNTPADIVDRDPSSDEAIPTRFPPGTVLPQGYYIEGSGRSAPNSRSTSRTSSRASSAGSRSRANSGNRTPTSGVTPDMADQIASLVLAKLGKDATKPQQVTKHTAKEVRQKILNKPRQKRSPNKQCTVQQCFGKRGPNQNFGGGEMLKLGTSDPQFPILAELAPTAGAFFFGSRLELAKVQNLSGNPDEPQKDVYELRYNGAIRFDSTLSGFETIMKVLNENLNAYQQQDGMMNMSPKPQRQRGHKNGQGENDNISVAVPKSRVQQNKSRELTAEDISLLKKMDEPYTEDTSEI

Usually Kd stands for the concentration at which binding is half-saturated. In general, koff refers to a measure of how fast the partners let go of each other. As a reminder, the kon is the rate constant with which the complex forms. CXCL4 (ligand): the Kd was determined as 170 nM, the koff came to 0.00088 s⁻¹ and the kon is 5300 M⁻¹ s⁻¹.
